Source: paper PMC11143371

Tests used:
[1] = biological target: RV3 F ectodomain without GCN4, Q89M + Q222I + L168P + S470V (human respirovirus 3 (HPIV3/Seattle/USA/10Q7/2010)); assay: SEC
[2] = biological target: RV3 F ectodomain without GCN4, Q89M + Q222I + L168P + S477V (human respirovirus 3 (HPIV3/Seattle/USA/10Q7/2010)); assay: SEC
[3] = biological target: RV3 F ectodomain without GCN4, Q89M + Q222I + L168P + S470V + S477V (human respirovirus 3 (HPIV3/Seattle/USA/10Q7/2010)); assay: SEC
[4] = biological target: stabilized RV1 preF with K339P (A44P + E170P + Q171P + K339P + S473V + A480V) (human respirovirus 1) (UniProt P12605); assay: SEC
[5] = biological target: RV3 F ectodomain without GCN4, five head-stabilizing substitutions plus S470V and S477V (human respirovirus 3 (HPIV3/Seattle/USA/10Q7/2010)); assay: SEC-MALS; analytical SEC-MALS of F variants in supernatant
[6] = biological target: RV3 F ectodomain without GCN4, five head-stabilizing substitutions (S41P, N167P, Q89M, Q222I, L168P) (human respirovirus 3 (HPIV3/Seattle/USA/10Q7/2010)); assay: as above
[7] = biological target: stabilized RV1 preF (A44P + E170P + Q171P + S473V + A480V) (human respirovirus 1) (UniProt P12605); assay: SEC-MALS
[8] = biological target: stabilized RV1 preF (A44P + E170P + Q171P + S473V + A480V) (human respirovirus 1) (UniProt P12605); assay: SEC

Substance: RV3 F ectodomain without GCN4, Q89M + Q222I + L168P + S470V (domain or fragment)
- stoichiometry N [1]: 3

Substance: RV3 F ectodomain without GCN4, Q89M + Q222I + L168P + S477V (domain or fragment)
- stoichiometry N [2]: 3

Substance: RV3 F ectodomain without GCN4, Q89M + Q222I + L168P + S470V + S477V (domain or fragment)
- stoichiometry N [3]: 3

Substance: stabilized RV1 preF with K339P (A44P + E170P + Q171P + K339P + S473V + A480V) (from UniProt P12605 22-496) (domain or fragment)
- stoichiometry N [4]: 3

Substance: RV3 F ectodomain without GCN4, five head-stabilizing substitutions plus S470V and S477V (domain or fragment)
- stoichiometry N [5]: 3

Substance: RV3 F ectodomain without GCN4, five head-stabilizing substitutions (S41P, N167P, Q89M, Q222I, L168P) (domain or fragment)
- stoichiometry N [6]: 3

Substance: stabilized RV1 preF (A44P + E170P + Q171P + S473V + A480V) (from UniProt P12605 22-496) (domain or fragment)
- stoichiometry N [7]: 3
- stoichiometry N [8]: 3
